Experimental data from article PMC2289352.

Target: S1 triple mutant containing all three substitutions L108D, L112D, and V117D
Experiment: SEC

protein eluting in the void volume of Sephacryl S200 (self-association): > 50%
Substance: S1 triple mutant containing all three substitutions L108D, L112D, and V117D (domain or fragment)
